Fewer inactive variants are shown than the library holds.
B1: TPR 5TU (parent)
chain: GGAUCUUCUCGAUCUAACAAAAAAGACAAAUCUGCCACAAAGCUUGAGAGCAUCUUCGGAUGCAGAGGCGGCAGCCUUCGGUGGCGCGAUAGCGCCAACGUUCUCAACUAUGACACGCAAAACGCGUGCUCCGUUGAAUGGAGUUUAUCAUG

Variants of: B1
Test: polymerase ribozyme fitness, log enrichment relative to wild type (log ratio); higher = more active; in vitro selection for triplet polymerase activity
Outline: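 Streptavidin-bead capture of gel-excised extended constructs, followed by RT-PCR, closed a single triplicate in vitro selection round. That round began by annealing PCR-built, transcribed mutant libraries of each subunit of a heterodimeric triplet polymerase ribozyme with a biotinylated primer, the partner subunit and triplets, then incubating them frozen at −7 °C. After Illumina sequencing of inputs and outputs, genotypes needed ≥10 input reads and ≥1 read per output. Fitness is the base-2 logarithm of genotype enrichment over wild-type enrichment, using inverse-variance-weighted replicate averages.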

Row | Variant | polymerase ribozyme fitness (log ratio)
1 | A17C A41U U56A C99U A121G A147G | -3.04
2 | A16G A73U G94U | -2.22
3 | A16G U144G | 0.162
4 | A17G A113C | -2.83
5 | A16G A24U G46U C85G A106C U109A C114U C118G A120G | ≤ -4.2
6 | A16U G94C | -2.55
7 | A16U G133C U146A | -3.79
8 | A16G G48A A122U C149U | -3.58
9 | A17G A49C G59U G92A A113G A119U | -4.03
10 | A16U A40G U44A G71C C85A G141A G143U | ≤ -4.2
11 | A17G A147U | 1.55
12 | A17G A21G C96G | 0.392
13 | A17C A20C C108G | ≤ -4.2
14 | A16U A39U G84A G92U C103U C149G U151C | ≤ -4.2
15 | A16U A47G C51U C95A C114U | -3.93
16 | A16G A21C C27G G59A G67C U145G | ≤ -4.2
17 | A16U A22C C27A C125A A150G | ≤ -4.2
18 | A16U G81A | -1.95
19 | A16U A19G C57A | -2.39
20 | A17C C57A C114U | -1.86
21 | A16U A19U A39U U61A A113G G128A G141C | ≤ -4.2

Row | Variant | polymerase ribozyme fitness (log ratio)
22 | A16U U31A A64U C85U A91G C131A | ≤ -4.2
23 | A17G A39C A107U | ≤ -4.2
24 | A16U U55A A91G G117U | ≤ -4.2
25 | A16U A150G | -2.95
26 | A16U G84U G86U C93G U144C | -3.51
27 | A16U U61A C95U | -3.06
28 | A17C G88A A91G U148A | -4.03
29 | A16G A37U U134G | -3.68
30 | A17C U31C G50C C51A | -0.997
31 | A17C A37C C93G | -2.89
32 | A16U A41G A47C C76G G88C G94C A110C U134A G140A G141C A147C | ≤ -4.2
33 | A17G A24U A26U G58A | -4.02
34 | A17C C95U A119U A150G | -1.7
35 | A16U A39C A49C C96U C125U | ≤ -4.2
36 | A16U U33C C38U G140U | ≤ -4.2
37 | A16U G50A C95G C118G | ≤ -4.2
38 | A17G A23C A97U C114U | ≤ -4.2
39 | A17C A28U U44C A52U G94U A97G A142G | ≤ -4.2
40 | A16G C57A | -0.592
41 | A17C A29C A66U G67A A91G C96U A115G C116A | ≤ -4.2
42 | A16U G50A C76U | -3.4

Row | Variant | polymerase ribozyme fitness (log ratio)
43 | A16G A37U A60U G71C G84A C116A G124C U146G | ≤ -4.2
44 | A16G U82A U145G | -1.4
45 | A17G A52U G83A C95U | -3.91
46 | A16U A17G G59C U77G G94U | -3.85
47 | A17C A24G A39U U56A C103G G136U | ≤ -4.2
48 | A16U A41G C51U G74C C95U C103U C118U G133A | ≤ -4.2
49 | A16U G34U G71A G94A U102G U151A | ≤ -4.2
50 | A16G C87U | -1.85
51 | A17G A60G C85G A89U | -2.31
52 | A17C C57U U82C | -0.0541
53 | A16U C27U A29C A49G C95U C105G U146A | ≤ -4.2
54 | A16U U44A G71C C96G A106U U127C G133U G141C U148C | ≤ -4.2
55 | A16G U55A G74A U82G C85G | ≤ -4.2
56 | A17G A30G C36A C99A | ≤ -4.2
57 | A17C A21G A40U G86U A122U | -1.48
58 | A16U G70C G81U A89G | ≤ -4.2
59 | A16G C32G A41U G80C C99U A110U U127A G143A | ≤ -4.2
60 | A16G C93G | -4.02
61 | A17C C18G G58A C69G C85U | -2.39
62 | A16U C51A A73G C85U A122C | ≤ -4.2
63 | A17G A52G C85G | -2.03

Row | Variant | polymerase ribozyme fitness (log ratio)
64 | A16U C38U A60C G80U A97G | ≤ -4.2
65 | A16U A21G A30U G48C | ≤ -4.2
66 | A17C C32G C54A C76G G80A C93A C96A U111A | ≤ -4.2
67 | A16U A22C | -2.41
68 | A16U A30C U44A G88A C105U U109A | ≤ -4.2
69 | A17G A28U G71A A121G | ≤ -4.2
70 | A16U G92U | -2.29
71 | A16G A40C | -0.456
72 | A17C G59C U102G C123A | -2.05
73 | A17C A40U U53A C76G C93U U146G | ≤ -4.2
74 | A16G G42A A52G C95U C96A C99G | ≤ -4.2
75 | A16U C103G | -3.31
76 | A17G A39C G68C C93G | ≤ -4.2
77 | A16U C27A A28U C54U C75U G92C G136U | ≤ -4.2
78 | A16U A98U A122G U146G | -3.26
79 | A17C G25A G62U G117U | -2.71
80 | A17C A19U | 0.475
81 | A16G C36U A49C G88A C93G A107U G140U G143C | ≤ -4.2
82 | A17G A89G | -0.582
83 | A17C C95A C103G C108G | ≤ -4.2

Reference: the RNAGym collection of RNA variant scans (doi:10.1073/pnas.2313332121)
